# The supplement of paper PMC9112550, “Optimization of the antimicrobial peptide Bac7 by deep mutational scanning” (BMC Biology, 2022)
# Tested on: Escherichia coli TOP10
# Test: shrunken log2 fold change of peptide-encoding DNA abundance (4.5 h post-induction vs induction); higher = less antimicrobial activity (less host growth inhibition)
# Conditions: time post-induction: 4.5 h; library: site-saturation at positions 5, 18, 19, 20
# 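Also: peptides expressed intracellularly from a pBAD plasmid library in pooled LB shake-flask culture, induced with 0.3% L-arabinose, DNA abundance read by NGS, three biological replicates, DESeq2 with apeglm shrinkage.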
row,Sequence,shrunken log2 fold change
1,RRIRDRPPRLPRPRPRPNDTPRP,0.0133
2,RRIRDRPPRLPRPRPRPNEWPRP,-0.00174
3,RRIRDRPPRLPRPRPRPNFIPRP,-0.0733
4,RRIRDRPPRLPRPRPRPNIVPRP,-0.0381
5,RRIRDRPPRLPRPRPRPNKCPRP,-0.104
6,RRIRDRPPRLPRPRPRPNKWPRP,-0.0744
7,RRIRDRPPRLPRPRPRPNPVPRP,-0.41
8,RRIRDRPPRLPRPRPRPNQPPRP,0.0323
9,RRIRDRPPRLPRPRPRPNQTPRP,0.0331
10,RRIRDRPPRLPRPRPRPNRTPRP,-0.477
11,RRIRDRPPRLPRPRPRPNVLPRP,-0.45
12,RRIRDRPPRLPRPRPRPNWLPRP,0.0018
13,RRIRDRPPRLPRPRPRPNYFPRP,-0.0536
14,RRIRDRPPRLPRPRPRPNYQPRP,-0.187
15,RRIRDRPPRLPRPRPRPPAYPRP,-0.0668
16,RRIRDRPPRLPRPRPRPPFTPRP,1.76
17,RRIRDRPPRLPRPRPRPPHAPRP,0.631
18,RRIRDRPPRLPRPRPRPPIAPRP,-0.0649
19,RRIRDRPPRLPRPRPRPPKSPRP,0.555
20,RRIRDRPPRLPRPRPRPPLFPRP,0.5
21,RRIRDRPPRLPRPRPRPPMNPRP,-0.258
22,RRIRDRPPRLPRPRPRPPNKPRP,0.0523
23,RRIRDRPPRLPRPRPRPPNTPRP,0.0945
24,RRIRDRPPRLPRPRPRPPNWPRP,0.28
25,RRIRDRPPRLPRPRPRPPPVPRP,0.867

row,Sequence,shrunken log2 fold change
1,RRIRDRPPRLPRPRPRPPRDPRP,0.771
2,RRIRDRPPRLPRPRPRPPRQPRP,0.782
3,RRIRDRPPRLPRPRPRPPSVPRP,0.258
4,RRIRDRPPRLPRPRPRPPTMPRP,-0.061
5,RRIRDRPPRLPRPRPRPPVGPRP,0.348
6,RRIRDRPPRLPRPRPRPPVVPRP,-0.0109
7,RRIRDRPPRLPRPRPRPPWQPRP,0.475
8,RRIRDRPPRLPRPRPRPPYFPRP,-0.0365
9,RRIRDRPPRLPRPRPRPPYLPRP,-0.0541
10,RRIRDRPPRLPRPRPRPPYMPRP,-0.464
11,RRIRDRPPRLPRPRPRPPYSPRP,-0.805
12,RRIRDRPPRLPRPRPRPQCVPRP,0.0602
13,RRIRDRPPRLPRPRPRPQDLPRP,0.0112
14,RRIRDRPPRLPRPRPRPQEDPRP,0.399
15,RRIRDRPPRLPRPRPRPQFCPRP,-0.137
16,RRIRDRPPRLPRPRPRPQHGPRP,0.587
17,RRIRDRPPRLPRPRPRPQIKPRP,0.0877
18,RRIRDRPPRLPRPRPRPQIMPRP,0.0478
19,RRIRDRPPRLPRPRPRPQKWPRP,0.15
20,RRIRDRPPRLPRPRPRPQLNPRP,-0.267
21,RRIRDRPPRLPRPRPRPQQFPRP,0.251
22,RRIRDRPPRLPRPRPRPQQLPRP,-0.0103
23,RRIRDRPPRLPRPRPRPQRFPRP,0.095
24,RRIRDRPPRLPRPRPRPQRVPRP,0.143
25,RRIRDRPPRLPRPRPRPQSHPRP,0.236

row,Sequence,shrunken log2 fold change
1,RRIRDRPPRLPRPRPRPQSNPRP,-0.109
2,RRIRDRPPRLPRPRPRPQSRPRP,-0.123
3,RRIRDRPPRLPRPRPRPQVFPRP,-0.101
4,RRIRDRPPRLPRPRPRPQVVPRP,0.0572
5,RRIRDRPPRLPRPRPRPQWPPRP,-0.0971
6,RRIRDRPPRLPRPRPRPQWVPRP,-0.0468
7,RRIRDRPPRLPRPRPRPRCLPRP,-0.0519
8,RRIRDRPPRLPRPRPRPRFFPRP,0.226
9,RRIRDRPPRLPRPRPRPRFHPRP,-0.239
10,RRIRDRPPRLPRPRPRPRFMPRP,-0.0192
11,RRIRDRPPRLPRPRPRPRFRPRP,0.951
12,RRIRDRPPRLPRPRPRPRFVPRP,0.0484
13,RRIRDRPPRLPRPRPRPRGAPRP,0.772
14,RRIRDRPPRLPRPRPRPRGNPRP,0.088
15,RRIRDRPPRLPRPRPRPRHHPRP,-0.043
16,RRIRDRPPRLPRPRPRPRHWPRP,0.548
17,RRIRDRPPRLPRPRPRPRITPRP,-0.138
18,RRIRDRPPRLPRPRPRPRLNPRP,-0.0317
19,RRIRDRPPRLPRPRPRPRPFPRP,0.691
20,RRIRDRPPRLPRPRPRPRPSPRP,0.329
21,RRIRDRPPRLPRPRPRPRPVPRP,0.466
22,RRIRDRPPRLPRPRPRPRQCPRP,-0.0309
23,RRIRDRPPRLPRPRPRPRQMPRP,0.019
24,RRIRDRPPRLPRPRPRPRRPPRP,0.652
25,RRIRDRPPRLPRPRPRPRRYPRP,0.247
